Reference: US20100305025

T1: human placental RNase inhibitor, P13489
T1 chain: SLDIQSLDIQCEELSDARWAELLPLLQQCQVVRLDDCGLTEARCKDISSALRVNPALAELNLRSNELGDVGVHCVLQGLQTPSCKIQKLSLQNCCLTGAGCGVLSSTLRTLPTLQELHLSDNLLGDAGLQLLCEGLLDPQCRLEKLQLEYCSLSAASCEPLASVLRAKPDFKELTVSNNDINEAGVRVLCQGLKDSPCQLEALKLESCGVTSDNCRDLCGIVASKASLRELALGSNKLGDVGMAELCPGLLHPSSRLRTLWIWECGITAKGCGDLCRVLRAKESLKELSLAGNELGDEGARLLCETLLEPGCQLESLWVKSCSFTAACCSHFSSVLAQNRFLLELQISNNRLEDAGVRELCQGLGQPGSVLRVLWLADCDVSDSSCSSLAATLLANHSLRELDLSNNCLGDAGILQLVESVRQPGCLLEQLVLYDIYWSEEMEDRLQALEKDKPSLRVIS


Target: T1, human placental RNase inhibitor, P13489

Protein	RNase activity (yeast tRNA substrate)
recombinant carboxy-terminal FLAG-tagged chicken (Gallus gallus) leukocyte RNase A-1 (protein) VPTYQDFLRTHVDFPKTSFPNIAAYCNVMMVRRGINVHGRCKSLNTFVHTDPRNLNTLCINQPNRALRTTQQQLPVTDCKLIRSHPTCSYTGNQFNHRVRVGCWGGLPVHLDGTFP	completely inhibited RNase activity
recombinant carboxy-terminal FLAG-tagged chicken (Gallus gallus) leukocyte RNase A-2 (protein) VPTYQDFLYKHMDFPKTSFPSNAAYCNVMMVRRGMTAHGRCKSFNTFVHTDPRNLNTLCINQPDQALRTTRRHFRITDCKLIRSHPTCRYSGNQFNRRVRVGCRGGLPVHLDGTSP	completely inhibited RNase activity
